Results: patent US11324837B2, “Hybrid membrane-coated nanoparticle composites and methods of making and using the same” (Portland State University, priority 2016, dated 2022)

Target: T1, TAMRA-Aβ1-42 (Homo sapiens, UniProt P05067)
T1 construct: fluorophore-labeled Aβ (TAMRA-Aβ1-42)
Assay: Fluorescence anisotropy of Aβ binding to AuNP surface
Settings: intrinsic, free peptide
Source text: Fluorescence anisotropy also confirmed Aβ binding to AuNP surface. This technique reports on the change in the molecular rotation of the dye attached to the free TAMRA-Aβ1-42 peptide and when it binds to something larger than itself under polarized light. The steady-state anisotropy (r) is derived from the following equation in which r=(IVV−GIVH)/(IVV+2GIVH), where IVV and IVH are the fluorescence intensities, the subscripts indicate the orientation of the excitation and emission polarizer's, and G=IHV/IHH is the wavelength dependent sensitivity of the instrument. In a typical experiment the intrinsic anisotropy of TAMRA-Aβ1-42 (ravg=0.12) increases in the presence of Au-SOA-PC-HT (ravg=0.35) (FIG. 18). The resulting change in anisotropy (Δr=0.23) is due to a large change in the hydrodynamic radius (size) of the small TAMRA-Aβ1-42 when it binds to the much larger Au-SOA-PC-HT nanoparticles. […] Note that Cu^II pre-incubated with TAMRA-Aβ1-42 when added to Au-SOA-PC-HT has the same 0.11 change in anisotropy (FIG. 18). Possible explanations for the additional increase in r include metal ion reassembly of peptides bound to the membrane or bridging interactions between the Au-SOA-PC-HT-TAMRA-Aβ1-42 species. Alternatively, metals could arrange TAMRA-Aβ1-42 within the membrane bilayer to slow its molecular rotation. […]

T1 sequence (P05067 672-713): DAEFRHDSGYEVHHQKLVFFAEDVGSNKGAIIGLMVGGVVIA

TAMRA-Aβ1-42: fluorophore-labeled Aβ
steady-state anisotropy ravg of TAMRA-Aβ1-42: 0.12
